# Laboratory results as given in patent EP1224288B1 (Pharis Biotec GmbH, dated 2006).
# T1: chemokine receptor CCR1 (human, UniProt P32246 1-355)
# T1 construct: whole, on cells
# T1 sequence (looked up): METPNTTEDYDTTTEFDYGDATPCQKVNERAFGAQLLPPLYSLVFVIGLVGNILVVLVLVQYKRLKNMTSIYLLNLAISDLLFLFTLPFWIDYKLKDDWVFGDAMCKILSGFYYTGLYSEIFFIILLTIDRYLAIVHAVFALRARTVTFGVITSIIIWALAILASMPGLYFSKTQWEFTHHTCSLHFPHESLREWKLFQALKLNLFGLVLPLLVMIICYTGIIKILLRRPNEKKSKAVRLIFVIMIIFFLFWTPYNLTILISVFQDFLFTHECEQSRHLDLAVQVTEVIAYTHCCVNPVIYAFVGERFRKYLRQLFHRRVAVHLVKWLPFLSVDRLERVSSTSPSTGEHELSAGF
# T2: chemokine receptor CCR3 (human, UniProt P51677 1-355)
# T2 sequence (looked up): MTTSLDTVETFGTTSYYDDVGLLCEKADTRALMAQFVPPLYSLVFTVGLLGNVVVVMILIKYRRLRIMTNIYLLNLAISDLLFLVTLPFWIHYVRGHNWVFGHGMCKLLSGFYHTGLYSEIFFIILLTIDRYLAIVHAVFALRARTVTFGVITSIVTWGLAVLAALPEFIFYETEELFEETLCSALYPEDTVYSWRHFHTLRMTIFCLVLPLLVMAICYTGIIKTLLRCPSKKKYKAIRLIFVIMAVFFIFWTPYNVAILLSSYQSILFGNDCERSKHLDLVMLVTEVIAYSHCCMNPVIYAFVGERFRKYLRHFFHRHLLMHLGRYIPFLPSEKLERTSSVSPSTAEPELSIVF
# B1: processed chemokine PHC-1 (HCC-1, residues 9-74) (ligand)
# chain: GPYHPSECCFTYTTYKIPRQRIMDYYETNSQCSKPGIVFITKRGHSVCTNPSDKWVQDYIKDMKEN
# notes: also called HCC-1[9-74]
# B2: RANTES (ligand, UniProt P13501 24-91, looked up)
# chain: SPYSSDTTPCCFAYIARPLPRAHIKEYFYTSGKCSNPAVVFVTRKNRQVCANPEKKWVREYINSLEMS
# modifications: also: 125I-labelled as tracer, position not given here
# B3: MIP 1-alpha (ligand, UniProt P10147 24-92, looked up)
# chain: SLAADTPTACCFSYTSRQIPQNFIADYFETSSQCSKPGVIFLTKRSRQVCADPSEEWVQKYVSDLELSA
# modifications: also: 125I-labelled as tracer, position not given here
# B4: full size HCC-1 (HCC-1, residues 1-74) (ligand)
# chain: TKTESSSRGPYHPSECCFTYTTYKIPRQRIMDYYETNSQCSKPGIVFITKRGHSVCTNPSDKWVQDYIKDMKEN
# notes: also called full-length HCC-1; HCC-1, 1-74
# Tests used:
# [1] = molecular target: T1, chemokine receptor CCR1; assay: radioligand competition, 0.1 nM 125I-Rantes tracer, membranes of CHO-K1 cells expressing CCR1
# [2] = molecular target: T2, chemokine receptor CCR3; assay: cell-based or functional assay
# [3] = molecular target: T1, chemokine receptor CCR1; assay: cell-based or functional assay
# [4] = molecular target: T3, chemokine receptor 5 (CCR5; AC P51681) (human, UniProt P51681 1-352); assay: cell-based or functional assay
# T3 sequence (P51681 whole entry, one chain of several): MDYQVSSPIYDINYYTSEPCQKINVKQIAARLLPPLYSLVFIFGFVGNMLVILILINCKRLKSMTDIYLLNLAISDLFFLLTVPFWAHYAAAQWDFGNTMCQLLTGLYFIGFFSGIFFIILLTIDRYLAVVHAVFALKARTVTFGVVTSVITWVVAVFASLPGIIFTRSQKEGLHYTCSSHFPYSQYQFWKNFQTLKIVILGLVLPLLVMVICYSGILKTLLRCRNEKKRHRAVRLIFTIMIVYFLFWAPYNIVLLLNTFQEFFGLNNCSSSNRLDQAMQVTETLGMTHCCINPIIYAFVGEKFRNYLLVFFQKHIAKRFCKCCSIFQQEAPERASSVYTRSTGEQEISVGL
# [5] = molecular target: T3, chemokine receptor 5 (CCR5; AC P51681); assay: radioligand competition, 0.1 nM 125I-MIP 1-alpha tracer, membranes of CHO-K1 cells expressing CCR5
# [6] = molecular target: T1, chemokine receptor CCR1; assay: radioligand competition, 125I-Rantes tracer on CCR1
# [7] = molecular target: T2, chemokine receptor CCR3; assay: radioligand competition, 0.1 nM 125I-Eotaxin tracer, membranes of CHO-K1 cells expressing CCR3
# [8] = molecular target: T3, chemokine receptor 5 (CCR5; AC P51681); assay: radioligand competition, 125I-MIP 1-alpha tracer on CCR5
# [9] = molecular target: T2, chemokine receptor CCR3; assay: radioligand competition, 125I-Eotaxin tracer on CCR3
# [10] = molecular target: T1, chemokine receptor CCR1; assay: radioligand competition binding on CCR1
binder,measurement,setting,value
B1,IC50,[1],2.3 nM
same,"Aequorin assay, EC50",[2],78 nM
same,"Aequorin assay, EC50",[3],2.8 nM
same,"Aequorin assay, activation of CCR5 transfected CHO-K1 cells, EC50",[4],4.8 nM
same,IC50,[5],0.04 nM
same,Ki,[6],0.023 nM
same,IC50,[7],78 nM
same,Ki,[8],0.04 nM
same,Ki,[9],2.7 nM
B2,"Aequorin assay, EC50",[3],6.3 nM
same,"Aequorin assay, activation of CCR5 transfected CHO-K1 cells, EC50",[4],2.4 nM
B3,"Aequorin assay, activation of CCR5 transfected CHO-K1 cells, EC50",[4],3.3 nM
B4,Ki,[10],100 nM
